The record followed here is patent EP4660202A1.

A value given as a limit tells only on which side of the number the result lay.

The target of assay [1] is T1, huTregL1-his (human) (UniProt Q96JA1).
T1 sequence: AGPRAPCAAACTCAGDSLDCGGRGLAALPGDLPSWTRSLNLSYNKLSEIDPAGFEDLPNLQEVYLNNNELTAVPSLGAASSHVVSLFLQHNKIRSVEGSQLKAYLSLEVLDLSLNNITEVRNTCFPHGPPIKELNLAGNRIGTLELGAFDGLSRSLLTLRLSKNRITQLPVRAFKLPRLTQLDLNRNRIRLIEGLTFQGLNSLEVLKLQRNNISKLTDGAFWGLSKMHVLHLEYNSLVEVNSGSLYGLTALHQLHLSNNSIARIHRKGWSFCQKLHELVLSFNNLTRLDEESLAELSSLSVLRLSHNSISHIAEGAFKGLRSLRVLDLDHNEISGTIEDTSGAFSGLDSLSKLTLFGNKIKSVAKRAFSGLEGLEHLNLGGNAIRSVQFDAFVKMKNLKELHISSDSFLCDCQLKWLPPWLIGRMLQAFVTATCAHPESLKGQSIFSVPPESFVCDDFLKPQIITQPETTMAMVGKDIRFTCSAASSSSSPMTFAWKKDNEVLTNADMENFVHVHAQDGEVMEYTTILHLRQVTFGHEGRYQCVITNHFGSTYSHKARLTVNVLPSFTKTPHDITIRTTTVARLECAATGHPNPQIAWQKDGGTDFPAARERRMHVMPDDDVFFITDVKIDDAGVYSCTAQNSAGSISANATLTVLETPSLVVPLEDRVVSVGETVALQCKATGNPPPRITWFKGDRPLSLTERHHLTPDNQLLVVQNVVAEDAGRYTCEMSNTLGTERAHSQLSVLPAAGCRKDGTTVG
Nature of the assay: cross-linking MS (DSBU), sequence L88-K92 of huTregL1-his, chymotrypsin or trypsin.

Assay [2] has as its target T1, huTregL1-his (human). Nature of the assay: cross-linking MS (DSBU), sequence S362-K365 of huTregL1-his, trypsin-treated group.
For assay [3], the target named is T1, huTregL1-his (human). Description: cross-linking MS (DSBU), sequence S90-L101 of huTregL1-his, chymotrypsin or trypsin.
Assay [4] has as its target T1, huTregL1-his (human). Description: cross-linking MS (DSBU), sequence N211-W222 of huTregL1-his, chymotrypsin or trypsin.
Assay [5] concerns the target T1, huTregL1-his (human). Description: covalent labelling MS (DEPC), sequence E62-L101 of huTregL1-his, antigen alone against antigen+antibody.
The target in assay [6] is T1, huTregL1-his (human). Description: covalent labelling MS (DEPC), sequence D111-L134 of huTregL1-his, chymotrypsin-treated group, antigen alone against antigen+antibody.
The target in assay [7] is T1, huTregL1-his (human). Nature of the assay: covalent labelling MS (DEPC), sequence Q542-Y553 of huTregL1-his, chymotrypsin-treated group, antigen alone against antigen+antibody.

B1: GTC210-03 clone (antibody, mouse IgG2a, V domains shown)
VH: EVQLLESGGGLVQPGGSLRLSCAASGFTFSSYDMSWVRQAPGKGLEWVSGISPDGSNIYYADSVKGRFTISRDNSKNTLYLQMNSLRAEDTAVYYCAKVGLRCRYEACSYAYGMDVWGQGTLVTVSS
VL: QSVLTQPPSASGTPGQRVTISCSGSSSNIGSNYVSWYQQLPGTAPKLLIYSDSHRPSGVPDRFSGSKSGTSASLAISGLRSEDEADYYCATWDSSLNGYVFGGGTKLTVLR
On to B1, for which the T% (peptides of the same sequence detected in the test sample compared to the control) in the assay with huTregL1-his (human) [1] was under 2%; in the assay with huTregL1-his (human) [2], 0%; with huTregL1-his (human) [3] it was under 2%; with huTregL1-his (human) [4] it was under 2%. The labeling decrease (%) amounted to 13.2% with huTregL1-his (human) [5], 15.3% with huTregL1-his (human) [6] and 14.7% in the assay with huTregL1-his (human) [7].
